According to the supplement of paper PMC11502859:

Tested on: HEK293T
Assay: median enrichment of reporter reads in eGFP-reduced (low/intermediate) vs eGFP-high sorted cells (eGFP-extension fusion abundance) (ratio); higher = stronger loss of eGFP-fusion protein abundance (more destabilising extension)
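Further: lentiviral eGFP-IRES-mCherry reporter pool sorted by FACS 96 h post-transduction, gated on mCherry-high cells, Illumina read counts normalized per million, median across four biological replicates.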

RBP1, sequence (chain, as listed by the source): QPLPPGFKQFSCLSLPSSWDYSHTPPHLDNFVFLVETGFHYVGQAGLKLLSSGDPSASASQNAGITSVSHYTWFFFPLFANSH

## LTSDRRSSLSSLSGSKMTRANGTKFESCQVNTWVLSMVTSICFVMCVLFQPEWEMLIQLLQAAQWGWWL [CFH]
  median enrichment: 6.21

## WSSSSSFIGLSGC [EDARADD]
  median enrichment: 1.2

## QLDHDLVQ [TRAT1]
  median enrichment: 0.266

## SRETVGG [JUN]
  median enrichment: 3.4

## YYSKIKYINIYIYIYFRKKKKTNKQKNPTPVDTLIFPNEDFIYGMEWKKKQLF [BMP2]
  median enrichment: 49

## SGSRRSRRDPHGSIALASDLAWRYFCRELGSRNASDLSALHIVGLKSGWELAKSLFRLFN [MRPL34]
  median enrichment: 8.92

## LRSLI [BAMBI]
  median enrichment: 7.1

## WGRRCGAVNFRPQRSQSMRGGGGGRGRRAKGGGAGASNPRQ [KISS1]
  median enrichment: 15.8

## SDVQDL [ZMPSTE24]
  median enrichment: 0.181

## WGGLN [OR3A1]
  median enrichment: 1.04

## LTQPRGGSLVFVLKFLVPNVFSSTFS [IL36G]
  median enrichment: 15.7

## SKRPGRKPPPLKVVFVTVLWSIVLKMGNYILLCQGQQTPAVKGIPSARRLFGACMFIAPARPDRGLLHKPCLVHFFTCKGTEC [AHNAK]
  median enrichment: 7.93

## PCRHHPPPSPCPQPVCPVPCPPQAWWWQWRRLRRLKRLTGRGAFCLAHCPDDPPAPSRLQQQSPRRTGWTEEKEVDCCTHTER [SOX10]
  median enrichment: 3.84

## KCDKVQPSDLIIHKIIYT [ZNF679]
  median enrichment: 15.1

## RGCAPAGSSKDRPARSPSNPTFFWKGGVLQGQAGASSRLLGANPSMYIAFLSCLRAADSQRCARGERCAVGSRA [TNFRSF1A]
  median enrichment: 10.5

## CGIQRERGSGRGGPEWGRLEGYRPAWMT [SNCG]
  median enrichment: 3.44

## WPHPAPPPPRPTRRPPDSSPGASSATPSLHPWGPSPPACTEQGLGVSWEA [ITGB4]
  median enrichment: 1.34

## GEKSYKCKECGKPLDDPQTLMNMRKFIL [ZNF141]
  median enrichment: 6.09

## YKP [ATP6V1A]
  median enrichment: 0.175

## QRTTEHLVSQNGLTTVSTTYSQMSISTSVELK [CYLC1]
  median enrichment: 1.57

## LHGFQASGSLTISLLRVSPGNCLTKSQAQGLLSIYLISERLF [LIMCH1]
  median enrichment: 33.9

## QTVEWLKLLSRRIYTSDLRRETLTPQWLHLL [HIST1H2BJ]
  median enrichment: 10.5

## YGDFPVQ [GPALPP1]
  median enrichment: 0.42

## LFSSQLF [ADAM17]
  median enrichment: 5.62

## LSRLLASMDFSRDVDIVLRVH [DIP2C]
  median enrichment: 10.3

## YYYYYYY [Tyr07]
  median enrichment: 3.18

## KKKEKKAKKKK [IQCA1]
  median enrichment: 0.903

## LTEQLLMSGG [NDUFS5]
  median enrichment: 5.57

## WVGGISETGKVAALSHFFWNSWWSPGLGHCLSPACFFVRSGIISKCS [SLC35E2A]
  median enrichment: 40.8

## YELEQLGNKLSTSRHLLSFAMCLMP [OR51A7]
  median enrichment: 3.52

## QQQ [Gln03]
  median enrichment: 0.325

## YMSEVQTLKKLAF [SLC7A13]
  median enrichment: 4.37

## DDDD [Asp04]
  median enrichment: 0.37

## AAAAAAAA [Ala08]
  median enrichment: 7.64

## RPCAEALPGFTQLMDSSVLTLSTTPFTSLFDFRSYRHCLR [GINS1]
  median enrichment: 7.78

## LRICRRFPFMKH [CUL4A]
  median enrichment: 8.83

## YAPL [SLC3A1]
  median enrichment: 0.632

## YRSRHLPQTWGGGPASSSTTLAPSLLTWVLAF [SCRIB]
  median enrichment: 13.1

## YTHMYDPYKCFKILKM [TRDN]
  median enrichment: 11.1

## QTLGNSISCIFDQIVTSFCI [RAB18]
  median enrichment: 5.83

## RPSGPPLPLGQGNQLLRDFSCLEGAVIAPPHCPTVLLGL [FBXW4]
  median enrichment: 4.69

## GTSLALLTHPRNTISGTRAAPRTRGYSRHNLIERAPAALTSTAFDTYASLVLLLSSESSCAHAFSRMGSPLAVAASVLALASS [KIAA1522]
  median enrichment: 6.48

## KNAQLL [ROR1]
  median enrichment: 0.376

## QDTERRTYSRNGLVQSQSPPL [CFAP157]
  median enrichment: 0.332

## LRQRQHQCRACPAALSLHALRAPLLLRYPFETSGAGPLPASLTIPRPLSHLGLGKPDSTQDQGSHEARRLRGSCPFSYSRA [SHOX2]
  median enrichment: 5.48

## YLISYYIF [PCDHB8]
  median enrichment: 5

## RVTFQVVPWAPGSGLWPTFSTFRPICTGCWQGGGRELTGTEGLGTQPFSTCAYRLDLSLLQKPALLCWLAGPVAAG [EIF6]
  median enrichment: 6.39

## YQLINLE [BRWD3]
  median enrichment: 0.91

## RAHELRL [TNFAIP8]
  median enrichment: 0.408

## QRLDMLSPNEPLSSPGEGR [ISX]
  median enrichment: 0.656

## RCAGSFLPSVKGQRCADLIFQLTTCFKRKIAHEKCLLAFQSIFEITG [FAM104A]
  median enrichment: 5.07

## LEIWRIF [RNF148]
  median enrichment: 9.09

## YVDLRQTLGGVKESHRYPKE [MAGEH1]
  median enrichment: 3.34

## YRCEGIGETLGWLVMVSIAGHQKLDS [B4GALNT2]
  median enrichment: 17.4

## LNAFLASSAGGLSLGRGDSTHHWNFADRKRFLFSVL [KMT2C]
  median enrichment: 16.9

## YMSEHGLSQACLHGIRLATPARPPGWFFSS [TJP2]
  median enrichment: 4.38

## WSQLTSLSRKVYP [CD9]
  median enrichment: 1.91

## RBP1
  median enrichment: 6.79

## YQIYRVEGLIGEGRSSGSTQELDWKRSL [SON]
  median enrichment: 9.11

## SEMMSCPGPMATRTLQATLLCDQARIPGAGLRGLNGPSGTQVGLSTLSPTTQPTALK [TMEM54]
  median enrichment: 0.763

## YLTFPAESVARGKVTIYAEMICLVPILCSTSVFQKFLINKLI [CDCA2]
  median enrichment: 4.06

## GGGGGG [Gly06]
  median enrichment: 2.43

## LANAS [NXF1]
  median enrichment: 0.411

## SQESRASLPRIAFIPKFAWK [CMBL]
  median enrichment: 2.33

## GCM [BET1]
  median enrichment: 0.417

## YWVFGLTGARMDLQRQL [GPR149]
  median enrichment: 5.42

## LLTVFHKEDV [ATP2A2]
  median enrichment: 10.9

## SLTVFHKEDV [ATP2A2]
  median enrichment: 0.983

## RTFATVYFKNKFKLFYHFI [ABCB4]
  median enrichment: 7.31

## IYPSPGSPGHSVLSKTRMWYQLWKRKVSCQQYLLPSRQPSQVRHLLRSHREPGVCTSWKSCHQPGHSSHRIDQRACFLIQENE [SPSB4]
  median enrichment: 7.01

## QGSYGIPPRSARA [CDKN2A]
  median enrichment: 5.31

## CAGAFVAISL [MSI2]
  median enrichment: 8.28

## PPPPPP [Pro06]
  median enrichment: 0.323

## TTTT [Thr04]
  median enrichment: 0.324

## YYYLQMKLTYTDLSSLMKKIRCYPIK [RBM11]
  median enrichment: 13

## WQGLPQHQSGDCDREGLAGTPRASGVVTDQEGLARTSANICGAAANNAAITENMVLVLKNVQCHFQQFKINRQNHPVARIT [OR2T2]
  median enrichment: 6.25

## YDPCGRPLPPSHRLPHHSCLVLGRPHCALALGLPSLLQQGTGALARVTD [GTF3C1]
  median enrichment: 6.87

## AAAAAAAAA [Ala09]
  median enrichment: 8.59

## YTDYIGSFELTSDKGGKFRQHYDLINFIF [MSH6]
  median enrichment: 21.1

## EVKGSIQVLHLVLPCLLSDHSDGLMWLLMWNCRRVQRRVCNKAIGKHTGAFPSPSGPRPLSKLDNFLLSCLFPALKLKQEIFW [HS3ST3B1]
  median enrichment: 9.3

## CFSRGQGGEGASGGVGAGGTVPREPGGSHTRTAPVSSGHCNPVGLFLQHSRSLPSIATLQTPG [SFRP1]
  median enrichment: 4.21

## YKMIVLTPYTNVLLLALIKLLEG [MAX]
  median enrichment: 15.5

## IVGPKGKEGKSAPRLGPGTHTPPDHLGNSRALRSRMLTKSNIQSLVNQDAVSPSVWQSVALAAGKLKADFHSYVHVDIHFRSS [RNF150]
  median enrichment: 4.94

## WLVAIFQHSSCIL [LVRN]
  median enrichment: 13.3

## KCSIYIYN [REC114]
  median enrichment: 18.5

## WVLIPTFPCDLGCRCSCCKMEANLTGVL [ADD2]
  median enrichment: 6.13

## SDASTGPSLFCPQP [HSPB8]
  median enrichment: 0.471

## SPSDYIFNTTPPTPSWVRVSPVCPRPIKSTCHC [GPS2]
  median enrichment: 5.9

## GWGLQGRGLAPFSLSY [NR1H4]
  median enrichment: 13.8

## CCCCCCC [Cys07]
  median enrichment: 9.39

## SRHIQVSFHHFIYKGDQCHRRVPEEMRSQGLS [MPV17L]
  median enrichment: 4.12

## LPMTLSWGPPARPGTFLPNPQTHDSLPHRLPQRPPTHFILSGHPSDLDPPVRAFKAPNSGTRSAPLPRPRAGNFSLPDPALLF [SCRT2]
  median enrichment: 6.07

## LNQFLGLTAM [BTN2A1]
  median enrichment: 12.4

## LEIPGFSDGPI [SLC39A2]
  median enrichment: 0.676

## QWRGEGRLGALGGWEMLASKRLTGREAGTCPQHKRQVYPGSL [BTBD18]
  median enrichment: 8.86

## DDDDDDDD [Asp08]
  median enrichment: 0.299

## PTASSLQVQLKPLSSGGRHVERAGRPTAAENRAGTGSSCSAFPSFGDAGSAAPKHLPAPHSTVSEDSSLLPVKLPCAGMAWTC [CDC14B]
  median enrichment: 2.89

## CALYLGSGQELHLGTNSC [ABCF2]
  median enrichment: 13.2

## WPSPPCQGQDPDFSKCGSHSAGTCRDMRGGCCHGRLPLHTRHWGSDPPGRWPFSPSS [CYSRT1]
  median enrichment: 2.04

## GVPAHSCGKGGEGRRARPEQGAGGRAQYLTRAAVLINVPMAGPRSEPASSATVTFSLRDGGGGSLSRWLSRPRSRPWVLSQLG [DUSP9]
  median enrichment: 4.83

## LWLPRPGRLLDILFWLNIVLWMVPQSGARILPRRKATNGSGNYIKPETLQQGENCAPGCLAQASLEPSKHFCPS [MAB21L3]
  median enrichment: 6.66

## RGRGCPPRPLTPPAAVAAILPLAWGLPSPSQSISPPPSCSGWMWACR [KMT2B]
  median enrichment: 4.49

## SVLPAHLGLVLALPRPL [LRSAM1]
  median enrichment: 14.6

## WSPQHQGGPSLKRKEPTQVRGLPIPPSQVSTFALPPSHWGPCRSWSGLTVPSPGTQLKGPQPKL [CAND2]
  median enrichment: 8.57

## QSTGRKCFWTEVVAVEGVASSCRQTIILEILVEVPSPIRHSNMSTNALKWN [EPHA3]
  median enrichment: 14.9

## YRNLENYTCFSEIITEYT [ABCD3]
  median enrichment: 11.4

## WRPPHFRFGFRKTFSEKKLFF [TFDP1]
  median enrichment: 5.19

## QESSSRGTEDWGQEESGTQPSCPLTPGRPSPHPRVPQSYPLSACVARPDKHLQMAAAPTWDLPRRLEQKGLSLGWCFSSRVLG [TMEM141]
  median enrichment: 3.62

## CGGLPRRAKMAEMILKITEEREDQPEFPLDICVFLFFYFVLFFLLLLLP [SOX9]
  median enrichment: 9.11

## LLAG [QKI]
  median enrichment: 4.55

## SVDTPAPVGMDGPDFMASGTWAQRGACGRGWENKVQGRDQTAASLYMPS [ITIH3]
  median enrichment: 32.4

## CCSSVKEQQTWHWNRVENPGFCTWRGKMPSCFLINPNFIYSSGTLWG [OPALIN]
  median enrichment: 5.49

## QCPN [LRRC3B]
  median enrichment: 0.337

## HLPIPASLARALLGPEQRRTCPTHTAIYSSRHRAPLPYSWSQQPGNGVALHWPLASTLSGAPAVGWGTPAKDQFGCLIPGAVT [CRHR2]
  median enrichment: 3.84

## KQIKLDEIYNYLIAQ [MDH1B]
  median enrichment: 18.9
